Source: article PMC8509413

What was measured:
[1] = target: wild-type equine lutropin/choriogonadotropin receptor (eLH/CGR) (equine)
[2] = target: wild-type equine lutropin/choriogonadotropin receptor (eLH/CGR) (equine); remark: listed apart in the source

recombinant equine chorionic gonadotropin (rec-eCGβ/α) (from UniProt P08751 21-169; P01220 25-120) (ligand)
EC50 of rec-eCG-stimulated cAMP accumulation (HTRF) in transiently transfected CHO-K1 cells, 30 min (separate experiment of Table 2) [1]: 0.0303 µg/mL
EC50 of rec-eCG-stimulated cAMP accumulation (HTRF) in transiently transfected CHO-K1 cells, 30 min (eLH/CGR-Y546F (equine)): 0.0959 µg/mL
EC50 of rec-eCG-stimulated cAMP accumulation (HTRF) in transiently transfected CHO-K1 cells, 30 min (eLH/CGR-R464H (equine)): 0.914 µg/mL
EC50 of rec-eCG-stimulated cAMP accumulation (HTRF) in transiently transfected CHO-K1 cells, 30 min (eLH/CGR-D405N (equine)): 0.135 µg/mL
EC50 of rec-eCG-stimulated cAMP accumulation (HTRF) in transiently transfected CHO-K1 cells, 30 min (eLH/CGR-M398T (equine)): 0.0198 µg/mL
EC50 of rec-eCG-stimulated cAMP accumulation (HTRF) in transiently transfected CHO-K1 cells, 30 min (experiment of Table 1) [2]: 0.0442 µg/mL
EC50 of rec-eCG-stimulated cAMP accumulation (HTRF) in transiently transfected CHO-K1 cells, 30 min (eLH/CGR-D564G (equine)): 0.0583 µg/mL
EC50 of rec-eCG-stimulated cAMP accumulation (HTRF) in transiently transfected CHO-K1 cells, 30 min (eLH/CGR-D578Y (equine)): 0.0479 µg/mL
EC50 of rec-eCG-stimulated cAMP accumulation (HTRF) in transiently transfected CHO-K1 cells, 30 min (eLH/CGR-L457R (equine)): 0.0244 µg/mL
